# Paper PMC3894171, “Defining NELF-E RNA Binding in HIV-1 and Promoter-Proximal Pause Regions”
# T1: dNELF-E(mut) (Drosophila, UniProt P92204 1-280, N173E;K174D;V175M;E177P;D178T;F179L)
# T1 sequence: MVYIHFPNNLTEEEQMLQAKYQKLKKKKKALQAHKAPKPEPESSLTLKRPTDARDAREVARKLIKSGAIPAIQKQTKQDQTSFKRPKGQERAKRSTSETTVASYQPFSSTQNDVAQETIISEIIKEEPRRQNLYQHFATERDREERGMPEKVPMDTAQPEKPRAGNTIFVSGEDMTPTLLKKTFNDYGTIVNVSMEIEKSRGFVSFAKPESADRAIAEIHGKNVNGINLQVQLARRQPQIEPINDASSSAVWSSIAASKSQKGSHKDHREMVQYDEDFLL
# B1: HIV-1 TAR (structured_RNA)
# RNA: GGUCUCUCUGGUUAGACCAGAUCUGAGCCUGGGAGCUCUCUGGCUAACUAGGGAACC
# B2: HIV-1 TAR+A (structured_RNA)
# RNA: GGUCUCUCUGGUUAGACCAGAUCUGAGCCUGAGGAGCUCUCUGGCUAACUAGGGAACC
# Assays:
# hNELF-E(mut) [1] = target: T2, hNELF-E(mut) (human, UniProt P18615 1-380, E269N;D270K;M271V;P273E;T274D;L275F); assay: F-EMSA; 10 mM HEPES-NaOH pH 7.5, 100 mM NaCl, 25 mM KCl, 1 mM MgCl2, 0.02% Tween-20, 0.01% IGEPAL CA-630, 10 µg/ml yeast tRNA; 2 nM RNA, 0-2000 nM protein, 1-2 h, binding temperature not stated; gel 5% acrylamide 0.5X TBE at 4 °C; details: protein: recombinant; tags: N-terminal His6 (pHIS-parallel1); label: 3' fluorescein (5-thiosemicarbazide); hairpin with UCU bulge
# dNELF-E(mut) [2] = target: T1, dNELF-E(mut); assay: as above; details: protein: recombinant, tags: N-terminal His6 (pHIS-parallel1), label: 3' fluorescein (5-thiosemicarbazide)
# hNELF-E(mut) [3] = target: T2, hNELF-E(mut); assay: fluorescence polarization; 10 mM HEPES-NaOH pH 7.5, 100 mM NaCl, 25 mM KCl, 1 mM MgCl2, 0.02% Tween-20, 0.01% IGEPAL CA-630, 10 µg/ml yeast tRNA; 2 nM RNA, 0-2000 nM protein, 1-2 h, binding temperature not stated; gel 5% acrylamide 0.5X TBE at 4 °C; details: protein: recombinant; tags: N-terminal His6 (pHIS-parallel1); label: 3' fluorescein (5-thiosemicarbazide); hairpin with UCU bulge
# dNELF-E(mut) [4] = target: T1, dNELF-E(mut); assay: as above; details: protein: recombinant, tags: N-terminal His6 (pHIS-parallel1), label: 3' fluorescein (5-thiosemicarbazide)
# T2 sequence (P18615 whole entry E269N/D270K/M271V/P273E/T274D/L275F): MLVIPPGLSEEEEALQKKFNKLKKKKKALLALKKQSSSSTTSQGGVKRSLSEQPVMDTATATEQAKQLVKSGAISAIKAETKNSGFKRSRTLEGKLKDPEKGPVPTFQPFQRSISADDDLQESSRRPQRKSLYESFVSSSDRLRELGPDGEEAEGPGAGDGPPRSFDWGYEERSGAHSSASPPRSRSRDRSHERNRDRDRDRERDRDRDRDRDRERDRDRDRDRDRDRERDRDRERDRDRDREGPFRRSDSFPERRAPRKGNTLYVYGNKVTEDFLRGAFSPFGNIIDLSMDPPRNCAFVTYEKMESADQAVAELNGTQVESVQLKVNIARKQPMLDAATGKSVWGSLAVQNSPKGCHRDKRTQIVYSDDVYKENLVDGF
Binder,Kd (hNELF-E(mut) [1]),Kd (dNELF-E(mut) [2]; hairpin with UCU bulge),Kd (hNELF-E(mut) [3]),Kd (dNELF-E(mut) [4]; hairpin with UCU bulge),Kd (dNELF-E(mut) [2]; putative K-turn stem-loop),Kd (dNELF-E(mut) [4]; putative K-turn stem-loop)
B1,258 ± 17 nM,270 ± 10 nM,153 ± 7 nM,130 ± 10 nM,,
B2,233 ± 40 nM,280 ± 30 nM,170 ± 5 nM,120 ± 10 nM,,
GGCCCCACUGAGGAUGCCCACGGGCGAUUGGGGCCA (structured_RNA) [Napt1min],,,,,350 ± 50 nM,95 ± 6 nM
